Drawing on article PMC4051428 (Organic Letters, 2014), this text covers Km and kcat for two molecules.

The target in one series is T1, ChxH (Streptomyces sp. YIM 56141, UniProt I7D037).
T1 sequence (I7D037 1-262): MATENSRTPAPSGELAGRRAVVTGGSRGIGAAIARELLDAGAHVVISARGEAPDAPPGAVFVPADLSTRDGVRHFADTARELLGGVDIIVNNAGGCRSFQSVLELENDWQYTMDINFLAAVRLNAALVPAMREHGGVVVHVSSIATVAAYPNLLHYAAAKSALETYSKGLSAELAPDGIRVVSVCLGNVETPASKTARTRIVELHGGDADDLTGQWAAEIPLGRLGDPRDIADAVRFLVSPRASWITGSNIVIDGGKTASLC
Description: steady-state kinetics, initial velocity, Michaelis-Menten. Particulars: read-out: apparent KM; saturating NADP+; reverse reaction 1 to 10.

Substrate in series [1]: NC(=O)c1ccc[n+]([C@@H]2O[C@H](COP(=O)(O)OP(=O)(O)OC[C@H]3O[C@@H](n4cnc5c(N)ncnc54)[C@H](O)[C@@H]3O)[C@@H](O)[C@H]2O)c1
Description: purified protein. Particulars: saturating 1; reverse reaction 1 to 10; varied: cofactor.

Substrate in series [2]: NC(=O)c1ccc[n+]([C@@H]2O[C@H](COP(=O)(O)OP(=O)(O)OC[C@H]3O[C@@H](n4cnc5c(N)ncnc54)[C@H](OP(=O)(O)O)[C@@H]3O)[C@@H](O)[C@H]2O)c1
Description: purified protein. Particulars: saturating 1; reverse reaction 1 to 10; varied: cofactor.

For orientation: Km means the concentration of substrate that gives half-maximal velocity. For `C[C@@H]1C[C@@H]([C@H](O)CC2CC(=O)NC(=O)C2)C(=O)[C@@H](C)C1` [compound 1, Cycloheximide], the Km at ChxH came out at 99 ± 7 µM.

B1: ChxH (Streptomyces sp. YIM 56141) (protein)
chain: T1 sequence (I7D037 1-262)
For the molecule B1, in the series “purified protein [1]”, the Km was determined as 233 ± 37 µM and the kcat was 13 ± 3 min^–1. Besides, in the series “purified protein [2]”, the Km is 76 ± 5 µM and the kcat is 387 ± 23 min^–1.
